Experimental data reported in the DeepSol protein solubility set.

experiment: soluble on expression in E. coli; label from the status in PepcDB or PDB records

| Sequence | soluble on expression in E. coli |
| --- | --- |
| QTVARKCSLTGEWDNDLGSIMTIGAVNDNGEFDGTYITAVADNPGNITLSPLLGIQHKRASQPTFGFTVHWNFSESTSVFVGQCFVDRSGKEVLKTKWLQRLAVDDISDDWIATRVGNNDFTRQHTVEE | soluble |
| QVQLQESGGGLVQAGGSLRLSCTASRRTGSNWCMGWFRQLAGKEPELVVALNFDYDMTYYADSVKGRFTVSRDSGKNTVYLQMNSLKPEDTAIYYCAARSGGFSSNRELYDGWGQGTQVTVSS | soluble |
| QVQLQQSGAELMKPGASVKISCKATGYTFSSFWIEWVKQRPGHGLEWIGEILPGSGGTHYNEKFKGKATFTADKSSNTAYMQLSSLTSEDSAVYYCARGHSYYFYDGDYWGQGTSVTVSSASTKGPSVFPLAPSSKSTSGGTAALGCLVKDYFPEPVTVSWNSGALTSGVHTFPAVLQSSGLYSLSSVVTVPSSSLGTQTYICNVNHKPSNTKVDKKVEPK | soluble |
| QVQLQQSGAELVKPGASVKMSCKASGYTFTTYPIEWMKQNHGKSLEWIGNFHPYSDDTNYNEKFKGKAKLTVEKSSSTVYLEFSRLTSDDSAVYYCAIHYGSAYAMDYWGQGTSVTVSS | soluble |
| QVQLQQSGPELVKPGALVKISCKASGYTFTNYDINWVKQRPGQGLEWIGWIYPGDGSTMYNEKFKGKATLTADKSSSTAYMQLSSLTSENSSVYFCARLDGNYGGWFAYWGQGTSVTVSSAKTTPPSVYPLAPVCGDTTGSSVTLGCLVKGYFPEPVTVTWNSGSLSSGVHTFPAVLQSDLYTLSSSVTVPSSTWPSETVTCNVAHPASSTKVDKKIVP | soluble |
| QVQLQQSGPGLVKPSQTLSLTCAISGDSVSSNSAAWNWIRQSPSRGLEWLGRTYYRSKWFNDYAVSVQSRITINPDTSKNQFSLQLNSVTPEDTAVYYCARGIVFSYAMDVWGQGTTVTVSSASTKGPSVFPLAPSSKSTSGGTAALGCLVKDYFPEPVTVSWNSGALTSGVHTFPAVLQSSGLYSLSSVVTVPSSSLGTQTYICNVNHKPSNTKVDKKVEPKSCAADEVDHHHHHH | soluble |
| QVQLQQSGSELMKPGASVQISCKATGYTFSDYWIEWVKQRPGHGLEWIGDILCGTGRTRYNEKLKAMATFTADTSSNTAFMQLSSLTSEDSAVYYCARSASYGDYADYWGHGTTLTVSSAKTTPPSVYPLAPGCGDTTGSSVTLGCLVKGYFPESVTVTWNSGSLSSSVHTFPALLQSGLYTMSSSVTVPSSTWPSQTVTCSVAHPASSTTVDKKLEPS | soluble |
| QVQLVESGGGLVQPGGSLRLSCAASGFTFSSYAMSWFRQAPGKEREIVSAVSGSGGSTYYADSVRGRFTISRDNSKNTLYLQMNSLRAEDTAVYYCAREPRIPRPPSFDYWGQGTLVTVSS | soluble |
| QVTLKESGPTLVKPTQTLTLTCTFSGFSLRTSRVGVSWIRQPPGKALEWLAHIYWDDDKRYNPSLKSRLTISKDTSKNQVVLTMTNMDPVDTATYYCARRGFYGRKYEVNHFDYWGQGTTVTVSSASTKGPSVFPLAPSSKSTSGGTAALGCLVKDYFPEPVTVSWNSGALTSGVHTFPAVLQSSGLYSLSSVVTVPSSSLGTQTYICNVNHKPSNTKVDKKVEPKSCG | soluble |
| RDFNNLTKGLCTINSWHIYGKDNAVRIGEDSDVLVTREPYVSCDPDECRFYALSQGTTIRGKHSNGTIHDRSQYRALISWPLSSPPTVYNSRVECIGWSSTSCHDGKTRMSICISGPNNNASAVIWYNRRPVTEINTWARNILRTQESECVCHNGVCPVVFTDGSATGPAETRIYYFKEGKILKWEPLAGTAKHIEECSCYGERAEITCTCRDNWQGSNRPVIRIDPVAMTHTSQYICSPVLTDNPRPNDPTVGKCNDPYPGNNNNGVKGFSYLDGVNTWLGRTISIASRSGYEMLKVPNALTDDKSKPTQGQTIVLNTDWSGYSGSFMDYWAEGECYRACFYVELIRGRPKEDKVWWTSNSIVSMCSSTEFLGQWDWPDGAKIEYFL | soluble |
| RDISVMVLLDLSESTNNQVNGQEFTVLDLTRQATVLLADAINRIGDPFAIHGFCSDGRHDVEYYRFKDFDQPYNEVPKMRLAGMTGQLSTRMGAAIRHASHFLKLQRAAKKLLLVITDGEPADVDVRDPQYLRFDTKKAVEEAGRSGILTYCMSLDPRADQYVSRIFGMRNYMVVDHVERLPEKLPMLYAGLTR | not soluble |
| RDTSVVVEHTSANPTGPVHVGRARNPIIGDAVARVLDYAGYDVDRHYYVNDAGRQIAVFTWAYETFDEDDLPEPERESPEYEMVRYYRKGNTILEDGDPDEVEAAEAEVQSILQGLEDGDEETYERVAEVVDTVLGGMQNTLGRLPAEFDEFVKETKFMRNGDTDDLVDRLKGLDCAVYEEDAWQLDLPDFEKNLVFLRSDGTSLYTTRDLAHHEWKFDTYDRAVTVLGEDHKLQADQLAAALELLDNDTDQLRQVFYSWVNLPEGGMSTREGTGIDLDDLLDEAIDRAREEVESRLDDRTRGDLDEDDIDRIARQVGIGAVRYDIVSKQPTKGITFEWDRALDFEAQSAPYVQYV | not soluble |
| RFLSIKTSWEDYFLEDDPMIIKTEEFKSVFGNDNYAAVLTDCDNTFTKENLELIRRLSNEMLDSISYAEKITSLTDIEFMIGNEEGMAIEQIVPEEIPSDSAGLAEIRRKAFLKPYIADRLVSKDGTLTWILLKLNPFPSDSVWNKGKGAVAPEMVVGRELEHIIRKPEYAALHPKGAGMPYMTDRKMAWVNRE | not soluble |
| RKKPVSQSLEFPTRYSPYRPYRCVHQGCFAAFTIQQNLILHYQAVHKSDLPAFSAEVEEE | soluble |
| RLHSDNVYLIENNVFGTTCARVGCMPSKLLIAAAEARHHALHTDPFGVHLDKDSIVVNGEEVMQRVKSERDRFVGFVVADVEEWPADKRIMGSAKFIDEHTVQIDEHTQITAKSFVIATGSRPVILPQWQSLGNRLIINDDVFSWDTLPKRVAVFGPGVIGLELGQALHRLGVKVE | not soluble |
| RLSQRLIEPVSALKVQLDQHQGDTSQKFIVPEGSAKEFQTLASQLNEYRSQINQVIKREQAFARYASHELRTPLTVMKGSSSLLARSPSTPFQERQIGRIQDATQQMSTMVDALLGLVRYERNTDDSPVRTISEQELHNIVALSQAQADEKSLEFNVQILGHPQTKATTAVLNITLSNLIRNGIAATSAGTIHITMTDTTLSVKDEGEGFSSVPDAEGHGLGLMIVDDLCRRYGWQFTIDTHSEGGCEAVIDLSSEHHEACSEQLPQH | not soluble |
| RMEIVKIPVVVHVVWNEEEENISDAQIQSQIDILNKDFRKLNSDVSQVPSVWSNLIADLGIEFFLATKDPNGNQTTGITRTQTSVTFFTTSDEVKFASSGGEDAWPADRYLNIWVCHVLKSEIGQDILGYAQFPGGPAETDGVVIVDAAFGTTGTALPPFDKGRTATHEIGHWLNLYHIWGDELRFEDPCSRSDEVDDTPNQADPNFGCPSYPHVSCSNGPNGDMFMNYLDYVDDKCMVMFTQGQATRVNACLDGPRSSFLA | soluble |
| RNLSGQSRTVGVEYVSANPTGPLHVGHGRAAAIGDCLARLLEANGWNVKREFYYNDAGVQIENLVRSVQARARGLKPGDALWPTDAYNGEYIADIAKAYLAGDSINMVDTIITSTKNVDDTAAIHHFAVNYLRNEQNHDLAAFNVDFDIYFLESSLYKDGKVEETVQKLINSGHTYEEGGALWLKSTHFGDDKDRVMRKSDGSYTYFVPDIAYHLSKWQRGYERAITELGADHHGSLARVHAGLQALEIGIPPGWPEYVLHQMVTVMRGGEEVKLSKRSGGYVTLRDLIEETSTDATRWFLIARKPDSQLTFDIDLARQKSNDNPVFYVQYAYARVCSLMHQAHE | not soluble |
| RNVDAALFGMISLYAQTKVIDTIIYGSDAGSKASIITAHPDEIAGRIIRELDRSATILPGKGAYSGRETSVVLCTVRKSEFARLKRIIHETDENAFVMVTETTEVIGLGFKDFSDAVQ | not soluble |
| RPIGIYEKATPTHCTWLERLNFAKELGFDFVEMSIDERDERLARLDWSKEERLEVVKAIYETGVRIPSICFSGHRRYPLGSKDPVLEEKSLELMKKCIELAQDLGVRTIQLAGYDVYYEEKSPQTRQRFIKNLRKACDWAEEAQVVLAIEIMDDPFISSIEKYLAIEKEIDSPFLFVYPDIGNVSAWHNDIYSEFYLGHHAIAALHLKDTYAVTESSKGQFRDVPFGQGCVKWEEAFDILKETNYNGPFLIEMWSENCETVEETRAAIQEAQAFLYPLIKKAGLM | not soluble |
| RPLTGLVMTGGGARAAYQVGALSAIMAILDPKARPGYPNPFPIICGTSAGAVNAAALACRADRPHLAVRRMRRLWASLETGMVYRADAPGLIRTGVRWLGLLSLGWMYAGLTRKRPQSLLDSSPLADLLGRVMDFDRMRHNLARGKLSALAITASGYTSGEHLTFYQSDRPIDPWHRFLRRAVPSAIGIDHIMASSAIPFVFPARPVRVHGQVEWCGDGSMRQLAPISPAIHLGATRVLVIGTGFHDDTHPEKREEDPPYPSLAQVGGHALSSIFLDGLSMDVERLERTNFLLSRGGQEAEPEFALRRVDVLALTPSQSLDQLALEHLDDMPSEARTLFRV | not soluble |
| RPNKGAQQEDERIIQAFDKAIQYMSKRKIGALITIERNTGLDEYIETGIDLDADITGELLINIFIPNTPLHDGAVIIKNEKIAVASAYLPLSESNLIPKEFGTRHRAAVGISEVSDAITIVVSEETGDVSLTLNNELIPGL | not soluble |
| RPQISIRVDVPKEEKGIEAMICLDISNSMLCEDVKPNRLSFAKQVLGKLFDGLQNDKVGLVVFAGNAYTQIPITTDLSAAKQFLADISPNMVTAQGTAIGAAIELASKSFSDNKEIGKTIIVLTDGENHEGNAIEAAQQAHEAGIRVNVIGLGTALGAPIPIEEGYLKDETGNPVVTKFDEKMCRDIASAGEGTFFSGQSASALVRAIESQLDKLPKAVLSSSSSSGYREV | not soluble |
| RQACYQEIIDTILSKKPHAFESLVVLLLQKMGYGGEIKQSGLVTPYSNDGGIDGIIKEDVLGFGRIHIQAKRYALENSVQRQEIQSFVGALAVAQSNKGVFITTSSFSRGAIQYAVGLNGSTTLILIDGQKLAEYIYEYGVGLQVEHTVEIKKLDSEFWDSMENEAGVPDL | not soluble |
| RQANELPGAPSQEEAVIAFGKFKLNLGTREMFREDEPMPLTSGEFAVLKALVSHPREPLSRDKLMNLARGREYSAMERSIDVQISRLRRMVEEDPAHPRYIQTVWGLGYVFVPDGSKA | soluble |
| RQFQILLQQINMTDDTFMTYFEHGEIKKLTIHKASKSWHFHFQFKSLLPFQIYDTLTTRLTQSFAHIAKVTSSIEVQDAEVSESIVQDYWSRCIEELQGISPPIISLLNQQKPKLKGNKLIVKTKTDTEAAALKNKYSSMIQA | not soluble |
| RRAYGKNSKWVLINYNTGQPYEQTKVTPDGLIDYDAVLAANAAASNGSEAIFALGSNSHKWFGLLSSFKKKLNSSLTLTAGYDGRYYRGDHYDKITDLLGGSYYIEDPKTKLAYHAEGQQLKVGDIVNRDYTGEIMWHGLFAQMEHSSEWIDAFVSGSINYELYRNHNYGGSKSTGYLPGVSPWKSFLPWSGKAGLSYKFAQGHNVFANGGFFTRAPLFGNIYAAGAIIPNDKANMEKVLTGEVGYGFTNHKNFEFNINGYYTKWMDRVTSKRIGNEYVYLNGVDAVHCGVEAEVSYRPIRQIDLRGMFSLGDWTWQNNVSYTSYDEAGNETGQDITYIKGLHVGDAAQMTAAVSADIELFKGFHVIGKYNFLGKNYAGFNPATRNAQQYEADGKEIVESWKLPDVGLFDLSASYNFKLGSLSTTFYFNMDNVADKRYVSDADDNIIGKKHDEASALVWYGFGRTWSTGIRVNF | not soluble |
| RSFDTKQEHGISPKPTYSRIKANYFSFGYFVGRVLPYQLFDLSRIPAFKQPAPSKIGQGSVQNIVLIMGESESAAHLKLFGYGRETSPFLTRLSQADFKPIVKQS | not soluble |
